In PMC10332591:
Several values for one entry are separate records, joined by “and”; a condition that tells them apart may be missing. Equal entries are not always repeated.

Target: human CD64 (FcγRI) (human) (UniProt P12314)
Test: BLI; Octet RED96; biotinylated human CD64, CD32a or CD16a loaded on streptavidin biosensors; serially diluted ARX788 drug substance in HBS-P+ buffer; global fit, Langmuir 1:1 model; for CD32a and CD16a only 3.0 seconds of the dissociation step fitted to avoid avidity effects

Sequence of human CD64 (FcγRI) (human) (P12314 16-374): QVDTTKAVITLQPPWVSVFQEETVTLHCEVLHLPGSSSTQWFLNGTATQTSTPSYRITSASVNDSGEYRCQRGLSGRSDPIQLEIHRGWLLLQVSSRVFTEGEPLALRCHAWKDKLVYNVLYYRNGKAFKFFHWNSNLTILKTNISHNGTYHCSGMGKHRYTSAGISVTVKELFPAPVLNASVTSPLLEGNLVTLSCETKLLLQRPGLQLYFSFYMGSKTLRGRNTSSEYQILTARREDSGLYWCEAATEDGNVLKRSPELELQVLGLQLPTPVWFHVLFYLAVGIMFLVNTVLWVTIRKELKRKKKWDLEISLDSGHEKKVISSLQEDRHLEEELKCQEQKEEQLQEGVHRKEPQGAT

Which KD ratio (Sample/RS) does the source give for ARX788 (antibody) here?
Its KD ratio (Sample/RS) is 0.98 and 0.89 and 1.
